The text below walks through data of patent US20180187173.

Series [1] deals with ZFN pair 33488/33501 (engineered). The series can be described thus: cell_activity. Particulars: K562 cells.
Series [2] deals with ZFN SBS 33488 (engineered). The series can be described thus: cell_activity. The note with it: pair with 33501, K562 cells; 37.5% in human CD34+ cells.

In series [1] (0.005% in CD34+ cells), HBG2 paralog site had an activity of 0.013 % indels.
On to “GGAGTCAGGTGCACCATGGTGTCTGTTT (double strand) [HBB left ZFN half-site]”, for which the activity in series [2] stood at 66.6 % indels.
Regarding HBE1 paralog site, the activity in series [1] (0.000% in CD34+ cells) came to 0 % indels.
Substance “CACCATGGTGCATCTGACTCCTGAGGAGAAGACTGCTGTCA (double strand) [HBD paralog site]” gave an activity in series [1] (off-target paralog, 28.6% in CD34+ cells) of 34 % indels.
HBBP1 paralog site displayed an activity in series [1] (0.005% in CD34+ cells) of 0.024 % indels.
HBG1 paralog site came in with an activity in series [1] (0.000% in CD34+ cells) of 0.006 % indels.
